Measurements published in US20200040085A1 (Chugai, published 2020).

T1: cynomolgus monkey MHC-DQ allele #1 (MHC DQA1*M2-1, MHC DQB1*M2-1) on Ba/F3 cells (cynomolgus monkey)
T1 construct: also called Ba/F3-cynoDQ C1; cynoDQ C1
T1 MHC II alpha: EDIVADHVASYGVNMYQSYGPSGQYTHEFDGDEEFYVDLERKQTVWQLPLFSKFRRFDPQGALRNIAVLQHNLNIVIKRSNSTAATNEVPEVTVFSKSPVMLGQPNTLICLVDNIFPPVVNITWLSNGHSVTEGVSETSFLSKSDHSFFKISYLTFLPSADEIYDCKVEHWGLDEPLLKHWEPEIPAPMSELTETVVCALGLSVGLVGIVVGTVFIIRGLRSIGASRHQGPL
T1 MHC II beta: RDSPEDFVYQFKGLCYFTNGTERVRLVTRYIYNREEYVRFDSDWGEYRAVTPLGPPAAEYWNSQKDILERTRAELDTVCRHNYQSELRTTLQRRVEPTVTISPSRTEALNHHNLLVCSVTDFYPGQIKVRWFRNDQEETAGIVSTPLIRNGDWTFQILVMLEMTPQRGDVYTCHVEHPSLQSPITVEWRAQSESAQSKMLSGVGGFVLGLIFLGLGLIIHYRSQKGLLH

T2: recombinant HLA-DQ8/gliadin peptide (human)
T2 chain 1: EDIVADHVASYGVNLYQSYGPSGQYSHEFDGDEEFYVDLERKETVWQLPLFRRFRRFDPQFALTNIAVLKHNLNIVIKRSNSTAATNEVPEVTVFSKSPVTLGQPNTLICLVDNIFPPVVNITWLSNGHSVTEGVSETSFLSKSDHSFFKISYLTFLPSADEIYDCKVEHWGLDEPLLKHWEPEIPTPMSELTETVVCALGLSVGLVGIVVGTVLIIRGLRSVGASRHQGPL
T2 chain 2: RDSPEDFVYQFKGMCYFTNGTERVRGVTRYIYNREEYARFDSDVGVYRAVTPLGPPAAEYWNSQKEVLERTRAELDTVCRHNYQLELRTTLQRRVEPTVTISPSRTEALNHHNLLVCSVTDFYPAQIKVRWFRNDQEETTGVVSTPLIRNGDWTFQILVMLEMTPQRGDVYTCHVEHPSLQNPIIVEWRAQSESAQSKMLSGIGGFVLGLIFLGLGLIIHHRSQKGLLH

T3: HLA-DQ8 (HLA-DQA1*0301, HLA-DQB1*0302) on Ba/F3 cells (human, UniProt P01909 24-216; P01920 33-230, limits assumed)
T3 construct: whole, on cells; Expressed from cDNA in mouse Ba/F3 cells; also called Ba/F3-HLA-DQ8
T3 MHC II alpha: not shown
T3 MHC II beta: not shown

B1: DQN0157 (antibody, human IgG1, kappa, V domains shown)
VH: QSLEESGGDLVKPGASLTLTCTASGFSFSSSYYMCWVRQAPGKGLEWIACIYTGSSGSTYYPSWAKGRFTISKTSSTTVTLQMTSLTAADTATYFCARVRAGSGYYYFNLWGPGTLVTVSS
VL: DIVMTQTPSSVSAAVGGTVTIKCQASQTIYSGLAWYQQKPGQPPKLLIYDASDLASGVPSRFSGSGSGTEFTLAISGVQCDDAATYYCHGDYYGGSGTFFWTFGGGTKVEIKR
notes: Rabbit variable regions with F1332m and hkOMC constant regions; also called DQN0157cc
B2: DQN0092 (antibody, human IgG1, kappa, V domains shown)
VH: QSVEESGGRLVTPGTPLTLTCTVSGFSLSSYYISWVRQAPGKGLEWIGIIYTDGVTDYPNWAKGRFTISKTSTTVDLKITSPTTEDTATYFCARDAASVYGCGYFDLWGPGTLVTVSS
VL: TFKLTQTPASVEAAVGGTVTIKCQASESNGNALAWYQQKPGQPPKLLIYRAFTLASGVPSRLKGSGSGTQFALTISDLECADAATYYCQTYYGSNTDFNAFGGGTKVEIKR
notes: Rabbit variable regions with F1332m and hkOMC constant regions; also called DQN0092hh
B3: DQN0100 (antibody, human IgG1, kappa, V domains shown)
VH: QQQLEESGGGLVKPGASLTLTCKGSGFSFTSGYWICWVRQAPGKGLEWIGCIYTGSSGSTYYASWAKGRFTISRSSTTVTLQMTSLTVADTATYFCAGDPSGASSGWDNLWGPGTLVTVSS
VL: AFELTQTPSSVEAAVGGTVTIKCQASQTIVSWLAWYQQKPGQRPKLLILYASNLASGVSSRFRGSGSGTDYTLTISDLECDDAATYYCQSYYFSTSSPDMYAFGGGTKVEIKR
notes: Rabbit variable regions with F1332m and hkOMC constant regions; also called DQN0100aa
B4: DQN0177 (antibody, human IgG1, kappa, V domains shown)
VH: QSVEESGGRLVTPGTPLTLTCTVSGFSLSSYAMSWVRQAPGKGLEWIGVISYSGRTYDASWAKGRFTISKTSTTVDLKITSPTTEDTATYFCARVGDSYGYAYATVIFTYHFNLWGPGTLVTVSS
VL: DPVLTQTPSSASEPVGGTVTIKCQASESISSSLAWYQQKPGQRPKLLIYDASKLASGVPSRFKGSGSGTEFTLTISGVQCDDAATYYCQHGLSSGSTNRCAFGGGTKVEIKR
notes: also called DQN0177aa
B5: DQN0139 (antibody, human IgG1, kappa, V domains shown)
VH: QSLEESGGRLVTPGTALTLTCTVSGFSLSSYAMGWVRQAPGKGLEYIGWTSPGDSAYYASWTKGRFTISRTSTTVELKITSPTTEDTATYFCARDAAYIGHWAFNLWGPGTLVTVSS
VL: DVVMTQTPASVSAPVGGTVTINCQASESIYSNLAWYQQKPGQPPKLLIYGASTLESGVPSRVKGSGYGTQFTLTISDLECADAATYYCQQYYGSSSTAFTFGGGTKVEIKR
notes: also called DQN0139bb
B6: DQN0089 (antibody, human IgG1, kappa, V domains shown)
VH: QEQVVEYGGDLVQPEGSLTLTCKASGLDFSSTYYMCWVRQAPGKGLEWIGCIYGGSSDSTYYASWAKGRFTISKTSPTTVTLQMTSLTAADTATHFCATYDYGAVGYDLWGPGTLVTVSS
VL: EVVVTQTPASVEVAVGGTVTIKCQASQNISPYLSWYQQKPGQPPKLLIYKASTLASGVSSRFKGSGSGTQFTLTISDLECADAATYYCQNNYGVSINYGHTFGGGTKVEIKR
B7: DQN0016 (antibody, human IgG1, kappa, V domains shown)
VH: QSLEESGGDLVKPGASLTLTCTASGFSFSSRYWMCWVRQAPGKGLEWIACIDAGSSGITYYASWANGRFTISKTSSTTVTLQMTSLTAADTATYFCARDAWSTTDGWNTFNLWGPGTLVTVSS
VL: DVVMTQTPASVSAAVGGTVTIKCQASQSIGSNLNWYQQKPGQSPKLLIYSASTLASGVPSRFKGSGSGTEYTLTISNLECADAATYYCQSYYYTGSSAVNNFGGGTKVEIKR
notes: Rabbit B-cell derived variable regions recombined with F1332m heavy and hkOMC light constant regions; expressed in FreeStyle 293-F cells; also called DQN0016cc

What was measured:
[1] = target: T1, cynomolgus monkey MHC-DQ allele #1 (MHC …); assay: FACS on Ba/F3-cynoDQ C1 cells, PE-labelled anti-human IgG secondary [panel Ba/F3-cynoDQ C1]
Procedure: (§1) Binding of antiHLA-DQ2.5/8 antibodies to HLA-DQ2.5-expressing Ba/F3 cells (Ba/F3-HLA-DQ2.5), Ba/F3-HLA-DQ8, Ba/F3-HLA-DR, Ba/F3-HLA-DP, Ba/F3-cynoDQ C1, Ba/F3-cynoDQ C2, and Ba/F3-cynoDQ C3 was tested.
(§2) Anti-HLA-DQ2.5/8 antibodies were incubated with each cell line for 30 minutes at room temperature and washed with FACS buffer (2% FBS, 2 mM EDTA in PBS). Goat F(ab′)2 anti-Human IgG, Mouse ads-PE (Southern Biotech, Cat. 2043-09) was then added and incubated for 20 minutes at 4 degrees C. and washed with FACS buffer. Data acquisition was performed on an FACS Verse (Becton Dickinson), followed by analysis using the FlowJo software (Tree Star) and the GraphPad Prism software (GraphPad).

[2] = target: T2, recombinant HLA-DQ8/gliadin peptide; assay: bead-based flow cytometry: HLA-DQ8/gliadin peptide on beads, antibody titrated, blocking of SP3.4 TCR-PE binding [panel DQ8/SP3.4 TCR neutralization]
Procedure: Streptavidin-coated yellow particles (Spherotech, SVFB-2552-6K) were incubated in blocking buffer (2% BSA in PBS) for 30 minutes with shaking at room temperature. After centrifugation and aspiration of the supernatant, 0.167 micro g/mL of soluble […] was then added as 1.2E+4 beads/micro L solution and immobilized for 60 minutes with shaking at room temperature in 96 well plates (Sigma Aldrich, Cat No. M2686). […] The final concentration of HLA-DQ8/gliadin peptide was 0.075 micro g/mL. The plates were washed with blocking buffer, and serially diluted anti-HLA-DQ2.5/8 antibodies were added and incubated for 60 minutes with shaking at room temperature. […] Data acquisition was performed on LSR Fortessa (Becton Dickinson), followed by analysis using the FlowJo software (Tree Star) and the GraphPad Prism software (GraphPad).

[3] = target: T2, recombinant HLA-DQ8/gliadin peptide; assay: SPR Biacore T200, 37 C, pH 7.4; antibody captured by anti-human Fc, pMHC injected; 1:1 model
Procedure: The affinity of the anti-HLA-DQ2.5/8 antibodies for binding to human HLA-DQ2.5/gliadin peptide and HLA-DQ8/gliadin peptide at pH 7.4 was determined at 37 degrees C. using the Biacore T200 instrument (GE Healthcare). Anti-human Fc (GE Healthcare) was immobilized onto all flow cells of a CM4 sensor chip using an amine coupling kit (GE Healthcare). All antibodies and analytes were prepared in ACES, pH 7.4 containing 20 mM ACES, 150 mM NaCl, 0.05% Tween 20, 0.005% NaN₃. Each antibody was captured onto the sensor surface by anti-human Fc. Antibody capture levels were aimed at 200 resonance units (RUs). A recombinant human HLA-DQ2.5/gliadin peptide was injected at […] prepared by four-fold serial dilution, followed by dissociation, whereas a recombinant human HLA-DQ8/gliadin peptide was injected at 50 to 200 nM prepared by four-fold serial dilution, followed by dissociation. The sensor surface was regenerated each cycle with 3M MgCl₂. Binding affinity was determined by processing and fitting the data to a 1:1 binding model using the Biacore T200 Evaluation software, version 2.0 (GE Healthcare). A commercially available antibody (SPV-L3) was tested as comparison.

[4] = target: T4, HLA-DQ2.5 (HLA-DQA1*0501, HLA-DQB1*0201) on Ba/F3 cells (human, UniProt P01909 24-216, limits assumed); assay: FACS on Ba/F3-HLA-DQ2.5 cells
T4 construct: whole, on cells; Expressed from cDNA in mouse Ba/F3 cells; also called Ba/F3-HLA-DQ2.5
Procedure: as §1, §2

[5] = target: T3, HLA-DQ8 (HLA-DQA1*0301, HLA-DQB1*0302) …; assay: FACS on Ba/F3-HLA-DQ8 cells
Procedure: as §1, §2

[6] = target: complex of the invariant chain and HLA-DQ on Raji cells (UniProt P04233 1-296); assay: cell-based or functional assay
complex of the invariant chain and HLA-DQ on Raji cells, sequence (P04233 whole entry, change not shown, one chain of several): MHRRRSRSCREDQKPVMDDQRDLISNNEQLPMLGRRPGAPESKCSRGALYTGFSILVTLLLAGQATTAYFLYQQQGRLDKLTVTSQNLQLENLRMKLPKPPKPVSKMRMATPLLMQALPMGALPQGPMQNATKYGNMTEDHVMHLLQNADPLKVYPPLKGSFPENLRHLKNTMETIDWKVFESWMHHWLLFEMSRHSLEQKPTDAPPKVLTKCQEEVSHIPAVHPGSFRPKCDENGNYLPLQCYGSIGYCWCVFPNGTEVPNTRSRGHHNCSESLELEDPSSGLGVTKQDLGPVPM

Binder | binding result [1] | IC50 (read off the curve) [2] [µg/mL] | Kd [3] [nM] | koff [3] [s⁻¹] | kon [3] [M⁻¹ s⁻¹] | binding result [4] | binding result [5] | ratio [MFI (PE/FITC) without Cytochalasin D, Dynasore]/[MFI (PE/FITC) with Cytochalasin D, Dynasore] on Raji cells (invariant chain-mediated internalization) [6]
B1 | no binding | ~0.1 | 22.6 | 0.0033 | 146000 |  |  | 
B2 | no binding |  | 7.28 | 0.00122 | 168000 | binds | binds | 
B3 |  | ~0.1 | 1.94 | 0.000458 | 236000 |  |  | 
B4 |  |  | 3.67 | 0.00137 | 374000 |  |  | 
B5 |  | ~0.3 | 11.3 |  |  |  |  | 
B6 |  |  |  |  |  |  |  | ~3
B7 |  | ~0.2 | 151 |  |  |  |  | 
